{"source": "patent US20070134663", "proteins": {"B1": {"name": "purified PKC theta (Upstate) (protein)", "chain": "MSPFLRIGLSNFDCGSCQSCQGEAVNPYCAVLVKEYVESENGQMYIQKKPTMYPPWDSTFDAHINKGRVMQIIVKGKNVDLISETTVELYSLAERCRKNNGKTEIWLELKPQGRMLMNARYFLEMSDTKDMNEFETEGFFALHQRRGAIKQAKVHHVKCHEFTATFFPQPTFCSVCHEFVWGLNKQGYQCRQCNAAIHKKCIDKVIAKCTGSAINSRETMFHKERFKIDMPHRFKVYNYKSPTFCEHCGTLLWGLARQGLKCDACGMNVHHRCQTKVANLCGINQKLMAEALAMIESTQQARCLRDTEQIFREGPVEIGLPCSIKNEARPPCLPTPGKREPQGISWESPLDEVDKMCHLPEPELNKERPSLQIKLKIEDFILHKMLGKGSFGKVFLAEFKKTNQFFAIKALKKDVVLMDDDVECTMVEKRVLSLAWEHPFLTHMFCTFQTKENLFFVMEYLNGGDLMYHIQSCHKFDLSRATFYAAEIILGLQFLHSKGIVYRDLKLDNILLDKDGHIKIADFGMCKENMLGDAKTNTFCGTPDYIAPEILLGQKYNHSVDWWSFGVLLYEMLIGQSPFHGQDEEELFHSIRMDNPFYPRWLEKEAKDLLVKLFVREPEKRLGVRGDIRQHPLFREINWEELERKEIDPPFRPKVKSPFDCSNFDKEFLNEKPRLSFADRALINSMDQNMFRNFSFMNPGMERLIS"}}, "key": {"[1]": {"biological_target": "FLAG-Luc [luciferase: P08659]", "sequence (P08659 whole entry)": "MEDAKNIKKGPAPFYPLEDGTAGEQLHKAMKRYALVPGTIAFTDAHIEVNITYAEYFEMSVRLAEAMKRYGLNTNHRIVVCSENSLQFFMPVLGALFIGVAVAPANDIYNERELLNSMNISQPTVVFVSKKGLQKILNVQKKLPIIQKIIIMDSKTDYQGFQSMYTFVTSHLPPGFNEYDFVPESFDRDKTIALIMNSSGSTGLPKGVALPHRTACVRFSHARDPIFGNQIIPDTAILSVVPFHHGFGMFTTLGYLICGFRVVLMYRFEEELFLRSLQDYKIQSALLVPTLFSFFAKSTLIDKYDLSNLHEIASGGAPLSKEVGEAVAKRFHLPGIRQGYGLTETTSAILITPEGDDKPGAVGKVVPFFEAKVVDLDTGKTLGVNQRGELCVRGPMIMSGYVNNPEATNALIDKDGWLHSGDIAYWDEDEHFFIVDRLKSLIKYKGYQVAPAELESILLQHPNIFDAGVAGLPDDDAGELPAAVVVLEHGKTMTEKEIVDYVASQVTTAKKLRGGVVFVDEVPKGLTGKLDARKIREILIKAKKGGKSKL"}, "MSN-V5-His, P26038": {"biological_target": "T1, MSN-V5-His, P26038", "T1 chain": "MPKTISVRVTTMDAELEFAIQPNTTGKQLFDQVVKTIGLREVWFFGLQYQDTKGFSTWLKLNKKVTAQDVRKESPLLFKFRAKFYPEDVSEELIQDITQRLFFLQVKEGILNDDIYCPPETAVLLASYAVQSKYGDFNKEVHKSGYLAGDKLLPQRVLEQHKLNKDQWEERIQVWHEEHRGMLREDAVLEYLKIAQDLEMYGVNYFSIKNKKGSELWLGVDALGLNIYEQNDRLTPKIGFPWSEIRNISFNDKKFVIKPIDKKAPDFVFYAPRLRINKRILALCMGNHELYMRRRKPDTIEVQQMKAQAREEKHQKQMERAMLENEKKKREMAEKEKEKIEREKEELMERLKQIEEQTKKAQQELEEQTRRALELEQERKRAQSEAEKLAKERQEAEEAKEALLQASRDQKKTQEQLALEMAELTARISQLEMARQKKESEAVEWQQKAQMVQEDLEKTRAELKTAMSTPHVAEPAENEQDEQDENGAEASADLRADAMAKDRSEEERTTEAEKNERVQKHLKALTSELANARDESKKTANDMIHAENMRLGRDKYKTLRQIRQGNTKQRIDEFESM"}}, "data": [{"protein": "B1", "values": [{"measurement": "phosphorylation of substrate, in vitro kinase assay with gamma-32P-ATP, SDS-PAGE and autoradiography", "setting": "[1]", "result": "the negative control Luc does not contain phosphorylated band (molecular weight of about 62 kDa)"}, {"measurement": "phosphorylation of substrate, in vitro kinase assay with gamma-32P-ATP, SDS-PAGE and autoradiography", "setting": "FLAG-KPNA1, P52294", "result": "phosphorylated band of KPNA1 (molecular weight of about 63 kDa) was observed"}, {"measurement": "phosphorylation of substrate, in vitro kinase assay with gamma-32P-ATP, SDS-PAGE and autoradiography", "setting": "MSN-V5-His, P26038", "result": "the positive control MSN contains phosphorylated band (molecular weight of about 71 kDa)"}]}]}
